The record followed here is patent publication US8124586 (DYAX, dated 2012).

For assay [1], the target named is T1, human plasma kallikrein (human, UniProt P03952 20-638).
T1 construct: The active enzyme comes from the zymogen prekallikrein
As to the kind of experiment: ratio of Ki,app values, reference aprotinin.

The target of a further assay is human plasma factor XIa (human, UniProt P03951 19-625). As to the kind of experiment: protease inhibition, Ki,app.
For assay [2], the target named is T1, human plasma kallikrein. The assay can be described thus: protease inhibition, Ki,app.
In assay [3] the target is porcine pancreatic kallikrein (porcine, UniProt P00752 8-246). As to the kind of experiment: protease inhibition, Ki,app.
For a further assay, the target named is human plasmin (human, UniProt P00747 97-810, limits assumed). The assay can be described thus: protease inhibition, Ki,app.
Sequence of human plasmin (P00747 97-810 limits assumed): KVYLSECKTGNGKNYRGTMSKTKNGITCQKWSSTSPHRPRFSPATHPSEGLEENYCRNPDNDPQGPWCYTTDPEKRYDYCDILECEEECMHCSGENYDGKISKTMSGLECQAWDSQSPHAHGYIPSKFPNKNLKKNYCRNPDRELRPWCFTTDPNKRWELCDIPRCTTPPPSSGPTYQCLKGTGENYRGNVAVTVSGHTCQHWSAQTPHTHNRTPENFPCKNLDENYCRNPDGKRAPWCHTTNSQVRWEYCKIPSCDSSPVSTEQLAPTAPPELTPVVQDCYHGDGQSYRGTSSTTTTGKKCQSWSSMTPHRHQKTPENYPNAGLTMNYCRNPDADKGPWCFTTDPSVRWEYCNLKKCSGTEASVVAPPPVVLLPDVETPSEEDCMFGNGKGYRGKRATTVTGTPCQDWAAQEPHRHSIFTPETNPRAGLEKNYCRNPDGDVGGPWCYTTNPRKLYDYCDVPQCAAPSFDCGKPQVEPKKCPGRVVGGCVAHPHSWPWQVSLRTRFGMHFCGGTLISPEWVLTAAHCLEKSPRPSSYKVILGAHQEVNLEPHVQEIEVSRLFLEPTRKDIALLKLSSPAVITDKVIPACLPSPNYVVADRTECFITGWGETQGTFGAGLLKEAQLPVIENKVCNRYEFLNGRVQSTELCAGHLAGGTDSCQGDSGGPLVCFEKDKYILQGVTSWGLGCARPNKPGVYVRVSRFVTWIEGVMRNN

T1 sequence (P03952 20-638 limits assumed): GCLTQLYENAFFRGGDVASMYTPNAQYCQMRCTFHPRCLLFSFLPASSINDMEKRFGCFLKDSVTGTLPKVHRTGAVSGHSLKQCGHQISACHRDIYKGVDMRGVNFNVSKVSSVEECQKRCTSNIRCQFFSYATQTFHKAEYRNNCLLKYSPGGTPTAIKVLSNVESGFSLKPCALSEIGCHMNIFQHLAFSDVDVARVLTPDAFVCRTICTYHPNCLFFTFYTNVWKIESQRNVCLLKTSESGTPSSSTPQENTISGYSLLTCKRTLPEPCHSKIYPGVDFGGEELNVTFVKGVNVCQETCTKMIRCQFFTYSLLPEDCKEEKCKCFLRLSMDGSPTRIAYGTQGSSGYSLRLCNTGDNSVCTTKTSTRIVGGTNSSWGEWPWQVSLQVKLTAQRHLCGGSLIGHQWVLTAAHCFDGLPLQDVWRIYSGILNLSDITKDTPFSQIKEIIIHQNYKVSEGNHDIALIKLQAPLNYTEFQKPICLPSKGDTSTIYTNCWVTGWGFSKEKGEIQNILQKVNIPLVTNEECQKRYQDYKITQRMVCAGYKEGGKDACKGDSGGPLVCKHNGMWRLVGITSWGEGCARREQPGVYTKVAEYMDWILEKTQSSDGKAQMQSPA
Sequence of porcine pancreatic kallikrein (P00752 8-246): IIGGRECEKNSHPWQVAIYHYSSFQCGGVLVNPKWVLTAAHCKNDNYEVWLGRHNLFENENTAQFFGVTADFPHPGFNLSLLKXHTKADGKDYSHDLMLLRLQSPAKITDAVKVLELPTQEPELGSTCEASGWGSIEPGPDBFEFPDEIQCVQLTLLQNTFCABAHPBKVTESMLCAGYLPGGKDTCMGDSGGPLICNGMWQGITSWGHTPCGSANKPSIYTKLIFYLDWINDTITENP

B1: PEP-1 KI polypeptide (designed binder)
chain: EAMHSFCAFKADDGPCRAAHPRWFFNIFTRQCEEFIYGGCEGNQNRFESLEECKKMCTRD
notes: Non-naturally occurring Kunitz domain polypeptide from a phage display library; Molecular weight 7,054 Daltons
For the molecule B1, in the assay with human plasma kallikrein [1], the “fold higher affinity (Ki,app) than aprotinin” value was 1000 fold. Also, the Ki is 10 nM with human plasma factor XIa, 0.044 nM in the assay with human plasma kallikrein [2], 27000 nM in assay [3] and 140 nM with human plasmin.
